Measured values taken from patent US20100331256.
“And” between values parts separate entries of the source, which are not always exact repeats. Identical values can stand only once.

Experiments:
PEO12-GANPR-CNP22(K4R) = molecular target: T1, PEO12-GANPR-CNP22(K4R)
T1 chain: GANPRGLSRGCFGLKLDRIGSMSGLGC

[1] = molecular target: T2, Analog AC: CNP22, K4R, G8T
T2 chain: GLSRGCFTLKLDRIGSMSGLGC

Analog AZ: R-CNP22, K4R = molecular target: T3, Analog AZ: R-CNP22, K4R
T3 chain: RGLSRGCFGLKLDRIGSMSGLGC

PEO12-GANRR-CNP22(K4R) = molecular target: T4, PEO12-GANRR-CNP22(K4R)
T4 chain: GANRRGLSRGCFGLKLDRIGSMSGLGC

PEG2K-CNP17 = molecular target: T5, PEG2K-CNP17
T5 chain: CFGLKLDRIGSMSGLGC

[2] = molecular target: T6, Analog BL: QEHPNARKYKGANKK-CNP22 (CNP37)
T6 chain: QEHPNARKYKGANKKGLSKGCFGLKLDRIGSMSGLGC

PEO24-CNP22 = molecular target: T7, PEO24-CNP22
T7 chain: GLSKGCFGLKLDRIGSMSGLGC

PEO24-GANRR-CNP22(K4R) = molecular target: T8, PEO24-GANRR-CNP22(K4R)
T8 chain: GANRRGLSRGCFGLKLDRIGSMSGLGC

[3] = molecular target: T9, Analog E: CNP22, D-F7 (D-Phe)
T9 chain: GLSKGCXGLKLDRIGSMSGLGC

[4] = molecular target: T10, Analog AW: Heptanoic acid (N-term.)-CNP22, G1E, K4E
T10 chain: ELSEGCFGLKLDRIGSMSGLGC

[5] = molecular target: T11, Analog G: CNP22, 3-chloro-F7
T11 chain: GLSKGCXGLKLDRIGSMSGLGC

[6] = molecular target: T12, Analog CF: GQPREPQVYTLPPS-CNP22 (IgG1(Fc) fragment)
T12 chain: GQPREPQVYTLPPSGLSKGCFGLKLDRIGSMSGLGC

[7] = molecular target: T13, Analog AT: CNP22, G1E, K4E
T13 chain: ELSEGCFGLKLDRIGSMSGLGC

[8] = molecular target: T14, Analog B: CNP22, N-methyl-F7 (methylated amide)
T14 chain: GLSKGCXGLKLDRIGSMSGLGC

[9] = molecular target: T15, Analog CG: GANSS-CNP22, K4R
T15 chain: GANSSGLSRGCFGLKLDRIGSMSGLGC

Analog P: CNP22, K4G = molecular target: T16, Analog P: CNP22, K4G
T16 chain: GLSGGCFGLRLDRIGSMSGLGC

PEG20K-CNP22 = molecular target: T17, PEG20K-CNP22
T17 chain: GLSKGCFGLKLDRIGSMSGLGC

[10] = molecular target: T18, PEO4-(PEO12)3 (branched)-CNP22
T18 chain: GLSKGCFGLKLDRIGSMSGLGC

PEG1K-GANRR-CNP22(K4R) = molecular target: T19, PEG1K-GANRR-CNP22(K4R)
T19 chain: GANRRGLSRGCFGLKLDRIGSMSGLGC

[11] = molecular target: T20, Analog A: CNP22, C6-CH2-NH (reduced carbonyl)
T20 chain: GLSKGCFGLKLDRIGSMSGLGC

[12] = molecular target: T21, Analog AY: GANRR-CNP22, K4R (CNP-27)
T21 chain: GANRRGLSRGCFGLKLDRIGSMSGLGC

[13] = molecular target: T22, Analog BK: CNP22, K4R, G15S
T22 chain: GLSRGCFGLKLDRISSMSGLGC

PEG2K-CNP22 = molecular target: T23, PEG2K-CNP22
T23 chain: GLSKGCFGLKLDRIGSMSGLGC

(PEO12)-Biotin-CNP22 = molecular target: T24, (PEO12)-Biotin-CNP22
T24 chain: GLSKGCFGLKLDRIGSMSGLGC

[14] = molecular target: T25, Analog BB: Heptanoic acid (N-term.)-CNP22, G1E
T25 chain: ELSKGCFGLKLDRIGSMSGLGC

[15] = molecular target: T26, Analog F: CNP22, t-butyl-G8
T26 chain: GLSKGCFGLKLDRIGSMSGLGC

[16] = molecular target: T27, Analog M: CNP22, N-methyl-L9, N-methyl-L11
T27 chain: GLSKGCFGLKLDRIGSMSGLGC

[17] = molecular target: T28, Analog X: CNP22, K4G, 3-methyl-F7
T28 chain: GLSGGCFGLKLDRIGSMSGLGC

Analog AH: CNP22, K4R = molecular target: T29, Analog AH: CNP22, K4R
T29 chain: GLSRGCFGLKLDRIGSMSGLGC

[18] = molecular target: T30, Analog CK: GQPREPQVYTGANQQ-CNP22, K4R (IgG1 fragment)
T30 chain: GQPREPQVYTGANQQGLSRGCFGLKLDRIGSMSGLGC

PEG1K-CNP22 = molecular target: T31, PEG1K-CNP22
T31 chain: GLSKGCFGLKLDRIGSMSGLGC

[19] = molecular target: T32, Analog N: D-CNP22 (all D-amino acids)
T32 chain: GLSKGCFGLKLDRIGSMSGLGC

[20] = molecular target: T33, Analog L: CNP22, N-methyl-L9, N-methyl-L11, N-methyl-L20
T33 chain: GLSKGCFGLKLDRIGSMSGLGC

[21] = molecular target: T34, Analog AV: Pentanoic acid (N-term.)-CNP22, G1E, K4E (not fully specified)
T34 chain: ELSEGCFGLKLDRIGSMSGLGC

PEO12-R-CNP22(K4R) = molecular target: T35, PEO12-R-CNP22(K4R)
T35 chain: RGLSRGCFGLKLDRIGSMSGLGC

[22] = molecular target: T36, Analog CL: GVPQVSTSTGANQQ-CNP22, K4R (HSA fragment)
T36 chain: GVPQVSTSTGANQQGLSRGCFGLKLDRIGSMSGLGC

[23] = molecular target: T37, Analog V: CNP22, K4G, 3,4-dichloro-F7
T37 chain: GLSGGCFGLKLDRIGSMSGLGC

[24] = molecular target: T38, wild-type C-type natriuretic peptide 22 (CNP22)
T38 chain: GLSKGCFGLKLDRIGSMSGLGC

[25] = molecular target: T39, Analog CS: GQEHPNARKYKGANPK-CNP22 (modified CNP37) (not fully specified)
T39 chain: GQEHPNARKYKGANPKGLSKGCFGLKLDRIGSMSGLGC

Analog BM: CNP53 = molecular target: T40, Analog BM: CNP53
T40 chain: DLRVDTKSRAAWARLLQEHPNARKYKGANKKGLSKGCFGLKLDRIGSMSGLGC

Analog BA: ER-CNP22, K4R = molecular target: T41, Analog BA: ER-CNP22, K4R
T41 chain: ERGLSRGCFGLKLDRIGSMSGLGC

[26] = molecular target: T42, Analog BJ: CNP22, K4R, G15N
T42 chain: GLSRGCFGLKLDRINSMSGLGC

[27] = molecular target: T43, Analog CC: DLRVDTKSRAAWAR-CNP22
T43 chain: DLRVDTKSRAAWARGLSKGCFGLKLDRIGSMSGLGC

PEG5K-CNP22 = molecular target: T44, PEG5K-CNP22
T44 chain: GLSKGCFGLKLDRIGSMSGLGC

PEO12-CNP22 = molecular target: T45, PEO12-CNP22
T45 chain: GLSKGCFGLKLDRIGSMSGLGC

[28] = molecular target: T46, Analog H: CNP22, Beta-2-F7 (3-amino-2-phenylpropionyl)
T46 chain: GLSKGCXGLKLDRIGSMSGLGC

[29] = molecular target: T47, Analog K: CNP22, N-methyl-L9, N-methyl-L20
T47 chain: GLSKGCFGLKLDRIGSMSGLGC

B1: recombinant human neutral endopeptidase (NEP) (protein)
chain: DDGICKSSDCIKSAARLIQNMDATTEPCTDFFKYACGGWLKRNVIPETSSRYGNFDILRDELEVVLKDVLQEPKTEDIVAVQKAKALYRSCINESAIDSRGGEPLLKLLPDIYGWPVATENWEQKYGASWTAEKAIAQLNSKYGKKVLINLFVGTDDKNSVNHVIHIDQPRLGLPSRDYYECTGIYKEACTAYVDFMISVARLIRQEERLPIDENQLALEMNKVMELEKEIANATAKPEDRNDPMLLYNKMTLAQIQNNFSLEINGKPFSWLNFTNEIMSTVNISITNEEDVVVYAPEYLTKLKPILTKYSARDLQNLMSWRFIMDLVSSLSRTYKESRNAFRKALYGTTSETATWRRCANYVNGNMENAVGRLYVEAAFAGESKHVVEDLIAQIREVFIQTLDDLTWMDAETKKRAEEKALAIKERIGYPDDIVSNDNKLNNEYLELNYKEDEYFENIIQNLKFSQSKQLKKLREKVDKDEWISGAAVVNAFYSSGRNQIVFPAGILQPPFFSAQQSNSLNYGGIGMVIGHEITHGFDDNGRNFNKDGDLVDWWTQQSASNFKEQSQCMVYQYGNFSWDLAGGQHLNGINTLGENIADNGGLGQAYRAYQNYIKKNGEEKLLPGLDLNHKQLFFLNFAQVWCGTYRPEYAVNSIKTDVHSPGNFRIIGTLQNSAEFSEAFHCRKNSYMNPEKKCRVW
- NEP cleavage t1/2 (PEO12-GANPR-CNP22(K4R)): 1.33 h
- NEP cleavage t1/2 [1]: 1.33 h
- NEP cleavage t1/2 (Analog AZ: R-CNP22, K4R): ≥ 2.67 h
- NEP cleavage t1/2 (PEO12-GANRR-CNP22(K4R)): > 2.67 h
- NEP cleavage t1/2 (PEG2K-CNP17): > 2.67 h
- NEP cleavage t1/2 [2]: > 2.67 h
- NEP cleavage t1/2 (PEO24-CNP22): > 2.67 h
- NEP cleavage t1/2 (PEO24-GANRR-CNP22(K4R)): > 2.67 h
- NEP cleavage t1/2 [3]: 2.17 h
- NEP cleavage t1/2 [4]: < 0.333 h
- NEP cleavage t1/2 [5]: 2.25 h
- NEP cleavage t1/2 [6]: > 2.67 h
- NEP cleavage t1/2 [7]: 1 h
- NEP cleavage t1/2 [8]: 1.33 h
- NEP cleavage t1/2 [9]: 1.58 h
- NEP cleavage t1/2 (Analog P: CNP22, K4G): 1.13 h
- NEP cleavage t1/2 (PEG20K-CNP22): > 2.67 h
- NEP cleavage t1/2 [10]: > 2.67 h
- NEP cleavage t1/2 (PEG1K-GANRR-CNP22(K4R)): > 2.67 h
- NEP cleavage t1/2 [11]: 0.917 h
- NEP cleavage t1/2 [12]: 1.08 h
- NEP cleavage t1/2 [13]: ≥ 2.67 h
- NEP cleavage t1/2 (PEG2K-CNP22): > 2.67 h
- NEP cleavage t1/2 ((PEO12)-Biotin-CNP22): 2.33 h
- NEP cleavage t1/2 [14]: 0.75 h and 1.08 h
- NEP cleavage t1/2 [15]: 1.33 h
- NEP cleavage t1/2 [16]: > 2.67 h
- NEP cleavage t1/2 [17]: 1.13 h
- NEP cleavage t1/2 (Analog AH: CNP22, K4R): 1.33 h
- NEP cleavage t1/2 [18]: ≥ 2.67 h
- NEP cleavage t1/2 (PEG1K-CNP22): > 2.67 h
- NEP cleavage t1/2 [19]: > 2.67 h
- NEP cleavage t1/2 [20]: 0.5 h
- NEP cleavage t1/2 [21]: 2 h
- NEP cleavage t1/2 (PEO12-R-CNP22(K4R)): ≥ 2.67 h
- NEP cleavage t1/2 [22]: > 2.67 h
- NEP cleavage t1/2 [23]: 1.13 h
- NEP cleavage t1/2 [24]: 1.33 h
- NEP cleavage t1/2 [25]: > 2.67 h
- NEP cleavage t1/2 (Analog BM: CNP53): > 2.67 h
- NEP cleavage t1/2 (Analog BA: ER-CNP22, K4R): 1.5 h
- NEP cleavage t1/2 [26]: 2.5 h
- NEP cleavage t1/2 [27]: > 2.67 h
- NEP cleavage t1/2 (PEG5K-CNP22): > 2.67 h
- NEP cleavage t1/2 (PEO12-CNP22): ≥ 2.67 h
- NEP cleavage t1/2 [28]: 1.33 h
- NEP cleavage t1/2 [29]: 1.33 h
